Results from patent US20110300138A1 (published 2011).
One block for each molecule: values may come before it.

Key:
[1] = molecular target: TSHR (thyroid stimulating hormone receptor), full length human (human) (UniProt P16473); assay: competitor ^125I-K1-70 IgG, TSHR coated tubes; 100 µg/mL in HBD
[2] = molecular target: thyroid stimulating hormone receptor (TSHR), full length human TSHR (human) (UniProt P16473); assay: TSH-biotin competition ELISA, TSHR coated wells; 10 µg/mL in HBD serum
[3] = molecular target: TSH receptor (TSHR), full length human, coated on tubes (human) (UniProt P16473); assay: inhibition of 125I-K1-18 IgG binding to TSHR coated tubes; competitor 125I-K1-18 IgG; sample at 0.01 µg/mL in assay buffer
[4] = molecular target: TSHR (thyroid stimulating hormone receptor), full length human (human) (UniProt P16473); assay: negative control; competitor ^125I-K1-70 IgG, TSHR coated tubes; 10 µg/mL in HBD
[5] = molecular target: TSHR (thyroid stimulating hormone receptor), full length human (human) (UniProt P16473); assay: negative control; competitor ^125I-K1-70 IgG, TSHR coated tubes; 1 µg/mL in assay buffer
[6] = molecular target: TSHR (thyroid stimulating hormone receptor), full length human (human) (UniProt P16473); assay: negative control; competitor ^125I-K1-70 IgG, TSHR coated tubes; 100 µg/mL in assay buffer
[7] = molecular target: thyroid stimulating hormone receptor (TSHR), full length human TSHR (human) (UniProt P16473); assay: TSH-biotin competition ELISA, TSHR coated wells; negative control, 10 µg/mL in assay buffer
[8] = molecular target: thyroid stimulating hormone receptor (TSHR), full length human TSHR (human) (UniProt P16473); assay: TSH-biotin competition ELISA, TSHR coated wells; negative control, 0.01 µg/mL in assay buffer
[9] = molecular target: human TSH receptor (full length) coated on ELISA plate wells (human) (UniProt P16473); assay: TSH-biotin binding inhibition ELISA, TSHR coated wells; 100 µg/mL in HBD serum pool; negative control MAb
[10] = molecular target: TSHR (full length) coated on tubes (human) (UniProt P16473); assay: inhibition of 125I-K1-18 Fab (competitor) binding to TSHR coated tubes; negative control 0.1 µg/mL in HBD serum
[11] = molecular target: TSHR (full length) coated on tubes (human) (UniProt P16473); assay: inhibition of 125I-K1-18 Fab (competitor) binding to TSHR coated tubes; negative control 0.01 µg/mL in HBD serum
[12] = molecular target: TSHR (full length) coated on tubes (human) (UniProt P16473); assay: inhibition of 125I-K1-18 Fab (competitor) binding to TSHR coated tubes; negative control 0.1 µg/mL in assay buffer
[13] = molecular target: TSH receptor (TSHR), full length human, coated on tubes (human) (UniProt P16473); assay: inhibition of 125I-K1-18 IgG binding to TSHR coated tubes; competitor 125I-K1-18 IgG; negative control sample at 1 µg/mL in HBD serum
[14] = molecular target: TSH receptor (TSHR), full length human, coated on tubes (human) (UniProt P16473); assay: inhibition of 125I-K1-18 IgG binding to TSHR coated tubes; competitor 125I-K1-18 IgG; negative control sample at 0.01 µg/mL in HBD serum
[15] = molecular target: TSH receptor (full length human TSHR) (human) (UniProt P16473); assay: competition ELISA: inhibition of M22 Fab-peroxidase (competitor) binding to TSHR coated wells; negative control at 10 µg/mL diluted in assay buffer
[16] = molecular target: TSH receptor (full length human TSHR) (human) (UniProt P16473); assay: competition ELISA: inhibition of M22 Fab-peroxidase (competitor) binding to TSHR coated wells; negative control at 0.1 µg/mL diluted in assay buffer
[17] = molecular target: TSH receptor (full length human TSHR) (human) (UniProt P16473); assay: competition ELISA: inhibition of M22 Fab-peroxidase (competitor) binding to TSHR coated wells; negative control at 100 µg/mL diluted in assay buffer
[18] = molecular target: TSH receptor (full length human TSHR) coated on tubes (human) (UniProt P16473); assay: 125I-TSH binding inhibition read against NIBSC 90/672; 10 ng/mL, in serum
[19] = molecular target: TSH receptor (full length human TSHR) coated on tubes (human) (UniProt P16473); assay: 125I-TSH binding inhibition read against NIBSC 90/672; mean over 10, 30 and 100 ng/mL, in assay buffer
[20] = molecular target: human TSH receptor (full length) coated on ELISA plate wells (human) (UniProt P16473); assay: TSH-biotin binding inhibition ELISA, TSHR coated wells; 100 µg/mL in assay buffer
[21] = molecular target: TSH receptor (TSHR), full length human, coated on tubes (human) (UniProt P16473); assay: inhibition of 125I-TSH binding to TSHR coated tubes; 0.01 µg/mL, diluted in assay buffer
[22] = molecular target: TSH receptor (TSHR), full length human, coated on tubes (human) (UniProt P16473); assay: inhibition of 125I-TSH binding to TSHR coated tubes; 10 µg/mL, diluted in HBD serum pool
[23] = molecular target: TSH receptor (TSHR) coated on tubes (human) (UniProt P16473); assay: inhibition of 125I-K1-70 IgG binding to TSHR coated tubes; sample 10 µg/mL in assay buffer
[24] = molecular target: TSH receptor (TSHR) coated on tubes (human) (UniProt P16473); assay: inhibition of 125I-K1-70 IgG binding to TSHR coated tubes; sample 100 µg/mL in assay buffer
[25] = molecular target: human TSH receptor (full length) coated on ELISA plate wells (human) (UniProt P16473); assay: TSH-biotin binding inhibition ELISA, TSHR coated wells; 100 µg/mL in assay buffer + 100 µg/mL 5B3 IgG
[26] = molecular target: thyroid stimulating hormone receptor (full length human TSHR) (human) (UniProt P16473); assay: ELISA: inhibition of M22 Fab-peroxidase (competitor) binding to TSHR coated wells; 0.1 µg/mL, diluted in assay buffer
[27] = molecular target: thyroid stimulating hormone receptor (full length human TSHR) (human) (UniProt P16473); assay: ELISA: inhibition of M22 Fab-peroxidase (competitor) binding to TSHR coated wells; 0.1 µg/mL, diluted in HBD serum pool

Molecule: M22 IgG (antibody)
units/L [18]: 1.5 units/L
units/mg [18]: 150 units/mg
mean units/mg [19]: 266 units/mg

B1: 5C9 IgG (antibody, from another filing, V domains shown)
VH: EVQLVESGGGLIQPGGSLRLSCAASGFTVSSNYMSWVRQAPGKGLEWVSVTYSGGSTSYADSVKGRFTISRDNSKNTLYLQMNSLRAEDTAVYYCARGGRYCSSISCYARSGCDYWGQGTLVTVSS
VL: AIQMTQSPSSLSASVGDRVTITCRASQSISNYLNWYQQKPGKAPKLLIYAASSLQSGVPSRFSGSGSGTDFTLTISSLQPEDFATYYCQQSYSSPSTTFGQGTKLEIK
% inhibition of TSH-biotin binding [20]: 91.2%
Inhibition of binding (%) [21]: 8.3%
Inhibition of binding (%) [22]: 39.9%
Inhibition of binding (%) [23]: 84.8%
Inhibition of binding (%) [24]: 93.3%
% inhibition of TSH-biotin binding [25]: 92.3%
Inhibition of binding (%) [26]: 7.1%
Inhibition of binding (%) [27]: 6.3%

Continued, values first:

Inhibition of binding (%) [1]: 51.1%
Inhibition of binding (%) [2]: 83.2%
Inhibition of binding (%) [3]: 20.9%
Molecule: 9D33 IgG (antibody)

Inhibition of binding (%) [4]: -1.5%
Inhibition of binding (%) [5]: 4.2%
Inhibition of binding (%) [6]: 1.3%
Inhibition of binding (%) [7]: -8.4%
Inhibition of binding (%) [8]: -5.9%
% inhibition of TSH-biotin binding [9]: 10.9%
Inhibition of binding (%) [10]: -8.3%
Inhibition of binding (%) [11]: -8.6%
Inhibition of binding (%) [12]: -3.6%
Inhibition of binding (%) [13]: -6.2%
Inhibition of binding (%) [14]: -8.1%
Inhibition of binding (%) [15]: 2.4%
Inhibition of binding (%) [16]: 1.4%
Inhibition of binding (%) [17]: 8.1%
Molecule: 5B3 IgG (antibody)
